The results in this text go back to patent publication US20140328753A1 (UNIVERSITE BORDEAUX SEGALEN, published 2014).

The target in one assay is T1, biotinylated BSA (bovine, UniProt P02769 25-607, biotinylated).
T1 construct: Control protein in the direct TR-FRET assay, at 50 ug/mL; also called biotinylated control protein; bovine serum albumin
The assay can be described thus: direct TR-FRET, scFv coated. As for the experimental part: FIG. 4. Direct TR-FRET binding assays between scFvs and atheromatous tissue extracts. Direct TR-FRET principle is schematized at the top. The donor fluorophore europium cryptate (Eu)K conjugated to anti-c-myc mAb was able to recognize c-myc tag expressed by scFvs. The acceptor fluorophore XL665 conjugated to streptavidin bound biotinylated protein extract. When scFvs and target proteins bound, a FRET signal was recorded. […] Specific TR-FRET signal was measured as a percentage DeltaF (percent DeltaF). The time course of the detection of the complex formation was performed after 6 hours (▪), 16 hours ( ), 24 hours ( ) and 40 hours (□) of incubation at 4° C. Ten microliter of scFv were coated on the plate at concentrations between 3 and 10 μg/mL according to the clone. The signals were measured in the presence of 4 nmol/L of mAb-(Eu)K, 4 nmol/L of streptavidin-XL665, and 30 μg/mL of biotinylated atheromatous protein extract or 50 μg/mL of biotinylated BSA (data not shown). Histobar values represent the average of at least three independent experiments±SD performed from the same purified scFv production.
Binding assays between scFvs and atheromatous protein extracts were assessed by direct TR-FRET. Black Fluotrac 600 microplate (Greiner) was coated with 10 μL of scFv (final concentration comprised between 3 and 10 μg/mL according to the clone) in 0.1 mol/L NaHCO₃, pH 8.6 for 16 hours at 4° C. Subsequently, plates were blocked for 3 hours at 4° C. using 1% BSA (w/v) in PBS solution. Following washing in PBS, 30 μg/mL of biotinylated atheromatous protein extract in 1% BSA/PBS was incubated for 16 hours at 4° C. After washing in PBS, 50 μL of reaction buffer (100 mmol/L Phosphate buffer, pH 7; 400 mmol/L KF buffer; 0.1% BSA), 4 nmol/L of anti c-myc-(Eu)K (Cisbio Bioassays, Codolet, France) and 4 nmol/L of streptavidin-XL665 (Cisbio Bioassays) were incubated in a final volume of 100 μL. FRET signal emission was measured and monitored with an Infinite® F500 reader (Tecan, Lyon, France) on a 40-hour time course. The percent DeltaF values reported the intensity of the direct binding between scFvs and protein extract.
A general note: In TR-FRET formats the signal depends on donor and acceptor labels being close together.

Assay [1] addresses human recombinant carbonic anhydrase II (human, UniProt P00918 1-260). As to the kind of experiment: ELISA, CA-II coated at 10 µg/mL, scFv at 10 µg/mL. The protocol:
Ninety-six well ELISA microtiter plates (Greiner) were coated overnight, at 4° C., with 100 µL of human recombinant carbonic anhydrase II (Sigma-Aldrich, St louis, USA) at a final concentration of 10 μg/mL, or bovine serum albumin at 50 μg/mL in carbonate buffer (NaHCO3/Na2CO3, 50 mmol/L, pH 9.6). All further reactions were carried out at room temperature. Following three washing steps with PBS-Tween 20 (0.5% Tween 20), 100 μL of purified K3.1 scFv at 10 μg/mL were added to each well. After a 2-h incubation and five washing steps, bound scFv was labeled with a mix of HRP-conjugated anti c-myc (diluted 1/1000, Miltenyi Biotech) and anti 6His (diluted 1/500, Roche Diagnostics) mAbs. After 1-h incubation and washing steps, color was developed with 100 μL of 3,3′,5,5′-Tetramethylbenzidine (TMB) liquid substrate system for ELISA (Sigma) and the absorbance was read at 450 nm with an Infinite® F500 reader (Tecan, Lyon, France).
For orientation: An ELISA detects its analyte on a solid surface through an enzyme-linked reagent.

The target of assay [2] is T2, rabbit cytosolic carbonic anhydrase isoenzyme II (CA-II) (rabbit, UniProt P00919 2-260).
T2 construct: Pulled down from the lysate of rabbit atherosclerotic aorta; also called CA-II protein; protein with an apparent molecular mass of ~29 kDa
The assay can be described thus: immunoprecipitation from rabbit atherosclerotic lysate on nickel beads, SDS-PAGE, LC-MS/MS. The protocol: Nickel-coated superparamagnetic beads (Ademtech, Pessac, France) were pre-washed three times with 500 μL of Binding Buffer (BB) (20 mmol/L Tris, pH 7; 500 mmol/L NaCl) and then incubated for 1 hour with 1 mg of rabbit atheromatous proteins solubilized in low stringent lysis buffer in order to get rid of nonspecific binding proteins. The supernatant free of nonspecific binding proteins was recovered and incubated with 10 μg of purified K3.1 scFv or of an irrelevant scFv for 16 hours at 4° C. under rotation. The next day, 20 μL of clean pre-washed superparamagnetic beads were added and incubated for a further 1 hour at 20° C. After three washings with 500 μL of BB, the immunoprecipitated complexes were eluted with 2×30 μL of elution buffer (20 mmol/L Tris-HCl, pH 7.5; 500 mmol/L NaCl; 100 mmol/L imidazole). The protein complexes were then separated using 10% SDS-PAGE under reducing conditions. The band was excised and submitted to trypsin digestion, followed by liquid chromatrography-tandem mass spectrometry analysis (LC-MS/MS).
To identify the molecule recognized by purified K3.1 scFv, immunoprecipitation experiments using nickel superparamagnetic beads were performed to retain 6H is-tagged scFvs complexed to antigens contained in the rabbit atherosclerotic protein lysate. […]

T1 sequence (P02769 25-607 limits assumed): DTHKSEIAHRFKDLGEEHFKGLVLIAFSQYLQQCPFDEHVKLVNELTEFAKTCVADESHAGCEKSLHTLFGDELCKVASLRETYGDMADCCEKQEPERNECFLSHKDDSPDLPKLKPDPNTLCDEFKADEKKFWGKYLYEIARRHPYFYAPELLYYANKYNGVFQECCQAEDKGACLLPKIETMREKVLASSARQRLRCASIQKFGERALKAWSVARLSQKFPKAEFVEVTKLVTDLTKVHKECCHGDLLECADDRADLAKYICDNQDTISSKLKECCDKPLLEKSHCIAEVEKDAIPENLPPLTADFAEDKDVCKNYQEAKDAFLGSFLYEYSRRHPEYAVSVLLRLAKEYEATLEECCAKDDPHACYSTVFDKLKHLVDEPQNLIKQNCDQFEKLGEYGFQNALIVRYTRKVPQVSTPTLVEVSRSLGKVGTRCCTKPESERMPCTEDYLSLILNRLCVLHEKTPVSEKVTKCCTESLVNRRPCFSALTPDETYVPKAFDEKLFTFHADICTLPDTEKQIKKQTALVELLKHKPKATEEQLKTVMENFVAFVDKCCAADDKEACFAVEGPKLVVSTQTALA

B1: C3.3 scFv antibody (scFv)
scFv: EVQLVESGGSLVKPGGSLRLSCAASGFTFSNYSMNWVRQAPGKGLEWISSISGSSRYIYYADFVKGRFTISRDNATNSLYLQMNSLRAEDTAVYYCVRGIDGGGGWNYFDHWGRGTLVTVSSGGGGSGGGGSGGGGSQSVLTQPASVSGSPGQSITISCAGTSSDVGGYNYVSWYQQHPGKAPKLMIYEDSKRPSGVSNRFSGSKSGNTASLTISGLQAEDEADYYCRQPSNSPPLNFGGGTKLAV
notes: Soluble scFv with c-myc and 6His tags
In the case of B1, the binding result with biotinylated BSA was “no binding (tested: 50 µg/mL of biotinylated BSA)”.

B2: I8.1 scFv antibody (scFv)
scFv: EVQLVESGGSLVKPGGSLRLSCAASGFTFSNYSMNWVRQAPGKGLEWISSISGSSRYIYYADFVKGRFTISRDNATNSLYLQMNSLRAEDTAVYYCVRNSFYASWSKDYSMEIWGRGTLVTVSSGGGGSGGGGSGGGGSQSVLTQPASVSGSPGQSITISCAGTSSDVGGYNYVSWYQQHPGKAPKLMIYEDSKRPSGVSNRFSGSKSGNTASLTISGLQAEDEADYYCQSWASRINIFGGGTKLAV
notes: as for B1
As for B2, the binding result in the assay with biotinylated BSA is listed as “no binding (tested: 50 µg/mL of biotinylated BSA)”.

B3: H2.1 scFv antibody (scFv)
scFv: EVQLVESGGSLVKPGGSLRLSCAASGFTFSNYSMNWVRQAPGKGLEWISSISGSSRYIYYADFVKGRFTISRDNATNSLYLQMNSLRAEDTAVYYCVRGGVDSSGDNCFDLWGRGTLVTVSSGGGGSGGGGSGGGGSQSVLTQPASVSGSPGQSITISCAGTSSDVGGYNYVSWYQQHPGKAPKLMIYEDSKRPSGVSNRFSGSKSGNTASLTISGLQAEDEADYYCTSYGSGATLVFGGGTKLAV
notes: as for B1
With B3, in the assay with biotinylated BSA, the binding result is “no binding (tested: 50 µg/mL of biotinylated BSA)”.

B4: K3.1 scFv antibody (scFv)
scFv: EVQLVESGGSLVKPGGSLRLSCAASGFTFSNYSMNWVRQAPGKGLEWISSISGSSRYIYYADFVKGRFTISRDNATNSLYLQMNSLRAEDTAVYYCVRGEGLYSGSYNLHYWGRGTLVTVSSGGGGSGGGGSGGGGSQSVLTQPASVSGSPGQSITISCAGTSSDVGGYNYVSWYQQHPGKAPKLMIYEDSKRPSGVSNRFSGSKSGNTASLTISGLQAEDEADYFCGTPNTHALWVFGGGTKLAV
notes: Human scFv from a semi-synthetic library (13R4 framework), made soluble in E. coli HB2151 and purified on nickel; It carried c-myc and 6His tags in the assays
In the case of B4, the results for the binding result (with biotinylated BSA; in assay [1]; in assay [2]) were “no binding (tested: 50 µg/mL of biotinylated BSA)”, “binds” and “binds”, respectively.
